B1: E214V: valine for glutamate at position 214 of the alcohol dehydrogenase of SEQ ID No. 2 (protein)
chain: MSVLISGASGYIAKHIVRVLLEQNYKVIGTVRSQDKADKLLKQYNNPNLSYEIVPEIANLDAFDDIFKKHGKEIKYVIHAASPVNFGAKDLEKDLVIPAINGTKNMFEAIKKYAPDTVERVVMTASYASIMTPHRQNDPTLTLDEETWNPVTEENAYENVFTAYCASKTFAEKEAWKFVKENSDAVKFKLTTIHPSFVFGPQNFDEDVTKKLNVTCEIINGLLHAPFDTKVEKTHFSQFIDVRDVAKTHVLGFQKDELINQRLLLCNGAFSQQDIVNVFNEDFPELKGQFPPEDKDTDLNKGVTGCKIDNEKTKKLLAFEFTPFHKTIHDTVYQILHKEGRV
modifications: Protein translated from synthetic DNA
B2: E214Q: glutamine for glutamate at position 214 of the alcohol dehydrogenase of SEQ ID No. 2 (protein)
chain: B1 chain with V214Q
modifications: Protein translated from synthetic DNA
B3: E214S: serine for glutamate at position 214 of the alcohol dehydrogenase of SEQ ID No. 2 (protein)
chain: B1 chain with V214S
modifications: Protein translated from synthetic DNA
B4: E214N: asparagine for glutamate at position 214 of the alcohol dehydrogenase of SEQ ID No. 2 (protein)
chain: B1 chain with V214N
modifications: Protein translated from synthetic DNA
B5: E214G: glycine for glutamate at position 214 of the alcohol dehydrogenase of SEQ ID No. 2 (protein)
chain: B1 chain with V214G
modifications: Protein translated from synthetic DNA
B6: E214I: isoleucine for glutamate at position 214 of the alcohol dehydrogenase of SEQ ID No. 2 (protein)
chain: B1 chain with V214I
modifications: Protein translated from synthetic DNA
B7: E214R: arginine for glutamate at position 214 of the alcohol dehydrogenase of SEQ ID No. 2 (protein)
chain: B1 chain with V214R
modifications: Protein translated from synthetic DNA
B8: S237A: alcohol dehydrogenase mutant obtained by random mutation screening (protein)
chain: B1 chain with V214I, S237A
modifications: Protein translated from synthetic DNA
notes: alcohol dehydrogenase mutant obtained by random mutation screening
B9: S237C: alcohol dehydrogenase mutant obtained by random mutation screening (protein)
chain: B1 chain with V214G, S237C
modifications: Protein translated from synthetic DNA
notes: as for B8

Residue numbers refer to the chain shown, from its start. Names may count otherwise. “And” between values parts separate entries of the source, which are not always exact repeats. Identical values can stand only once.

The values below come from patent US11078465B2, “Alcohol dehydrogenase mutant and application thereof in synthesis of diaryl chiral alcohols” (Jiangnan University, priority 2018, dated 2021).

One data set in a line: Kinetic analysis of alcohol dehydrogenase and mutants (NADPH oxidation, 340 nm, double reciprocal curve). The format is biochemical. To be noted: substrate CPMK. As for the experimental part: Adopting a total reaction system of 200 μL, including: 1.0 mM NADPH, 1.0 mM substrate CPMK and sodium phosphate buffer (PBS, 100 mM, pH 7.0), fully and evenly mixing, maintaining at 30° C. for 2 min, adding an appropriate amount of enzyme solution, and detecting the change in light absorption at 340 nm.
The enzyme activity was calculated by the following formula: Enzyme activity (U)=EW×V×10^3/(6220×I);
in the formula, EW is the change in absorbance at 340 nm in 1 min; V is the volume of a reaction solution in mL; 6220 is the molar extinction coefficient of NADPH in L/mol·cm); and 1 is the optical path distance in cm. One activity unit (U) corresponds to the amount of enzyme required to catalyze the oxidation of 1 μmol NADPH per minute under the above conditions.
A column used for purification was a nickel affinity column HisTrap FF crude, and purification was achieved through affinity chromatography using a histidine tag on recombinant protein. The nickel column was equilibrated with a solution A first, a crude enzyme solution was loaded, a penetrating peak was further eluted off using the solution A, and after equilibrium, a solution B (20 mM sodium phosphate, 500 mM NaCl, and 1000 mM imidazole, pH 7.4) was used for gradient elution to elute off the recombinant protein bound to the nickel column, so as to obtain the recombinant alcohol dehydrogenase mutant. The purified protein was subjected to activity measurement (CPMK as substrate, and NADPH as coenzyme) and SDS-PAGE analysis. […] The purified alcohol dehydrogenase protein was then replaced into a Tris-HCl (100 mM, pH 7.0) buffer using a Hi Trap Desalting column (GE Healthcare).
The activity of KpADH at different substrate concentrations and coenzyme concentrations was determined, and a double reciprocal curve was made based on the reciprocal of activity and substrate concentration to calculate kinetic parameters.
In the case of B1, the Kcat was determined as 8.91 ± 0.48 s⁻¹, the Km worked out at 420 µM and the Vmax is 13.36 ± 0.89 µM/min/mg.
Consider B2, for which the Kcat came to 16.26 ± 1.33 s⁻¹, the Km came to 1300 ± 200 µM and the Vmax worked out at 24.4 ± 0.20 µM/min/mg.
For B3, in that order: 11.86 ± 0.48 s⁻¹, 540 ± 70 µM and 17.79 ± 0.88 µM/min/mg.
As for B4, the Kcat was determined as 22.90 ± 1.12 s⁻¹, the Km is 420 ± 60 µM and the Vmax came to 34.35 ± 2.05 µM/min/mg.
On the same counts, the results for B5 are 5.5 ± 0.10 s⁻¹, 250 µM and 8.26 ± 0.15 µM/min/mg.
As to B6, the Kcat turned out to be 8.77 ± 0.23 s⁻¹, the Km is 410 ± 40 µM and the Vmax stood at 13.15 ± 0.43 µM/min/mg.
For B7, in that order: 15.85 ± 0.49 s⁻¹, 980 ± 80 µM and 23.77 ± 0.90 µM/min/mg.

A short description of another data set: Stereoselectivity (ee) of CPMK reduction, chiral liquid chromatography. The format is biochemical.
Settings: not given
As for the experimental part: In an embodiment of the present disclosure, a chromatographic analysis method is as follows: 100 μL of reactant liquid is taken, 500 μL of ethyl acetate is added, shaking is performed for 1-2 min, centrifugation is performed at 12,000 rpm for 2-5 min, supernatant liquid is taken into a centrifuge tube, after an organic phase naturally volatilizes completely, 500 μL of chromatographically pure ethanol is added, and chiral liquid chromatography and gas chromatography are performed to analyze the transformation rate and the ee value.
Method for determining optical purity ee:
As: molar concentration of (S)-CPMA obtained by liquid chromatography; and AR: molar concentration of (R)-CPMA obtained by liquid chromatography.
Regarding B5, the “configuration of product / stereoselectivity in words” value is “inversion from an R configuration to an S configuration”.

Still in this data set, the particulars now being: R configuration product.
With B1, the “ee value, (R)-CPMA” value is 91% and 95.3%.

Still in this data set, the particulars now being: product configuration in brackets.
Consider B1, for which the ee % is listed as 95.3 (R) %.
Take B2: the ee % is recorded as 58.5 (R) %.
B3: the ee % is 14.2 (R) %.
For the molecule B4, the ee % was 58.1 (R) %.
Turning to B5, the e.e. is 25.6 (S) and the ee % is 25.6 (S) %.
As to B6, the ee % is listed as 93.0 (R) %.
The same measure, in the same setting: under B7 stands 42.5 (R) %.
Take B8: the e.e. is 96.1 (R).
With B9, the e.e. is given as 27 (R).

By Km is commonly meant the substrate concentration at which the rate is half of its maximum. One may read the Vmax as the top rate of the reaction or transport when substrate is in excess.
